Experimental data published in patent US20220089705A1 (Harvard, published 2022).
Where a chain is given by its changes, count along the chain named. In names and notes the source's numbering stands. Blank lines part the entries; values can stand above or below the binder they belong to.

What was measured:
[1] = target: T1, human aP2 (fatty acid-binding protein, adipocyte, FABP4/aP2) (human, UniProt P15090 1-132, Biotinylated with Sulfo-NHS-LC-Biotin in the Octet assay. Refolded with palmitic acid after delipidation. The letters carry neither.); experiment: method not stated in the sentence (FIG. 31); average binding affinity; PB1172, human aP2
T1 construct: also called haP2; human FABP4

[2] = target: T2, mouse aP2 (fatty acid-binding protein, adipocyte, FABP4/aP2) (mouse, UniProt P04117 1-132); experiment: method not stated in the sentence (FIG. 31); average binding affinity; PB1172, mouse aP2
T2 construct: Lipid-loaded and de-lipidated preparations are the same polypeptide and are told apart under assay; also called mouse FABP4; murine aP2
T2 sequence: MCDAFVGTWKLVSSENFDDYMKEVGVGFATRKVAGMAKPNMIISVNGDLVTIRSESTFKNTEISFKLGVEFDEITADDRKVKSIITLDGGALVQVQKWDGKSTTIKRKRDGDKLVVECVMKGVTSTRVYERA

[3] = target: T1, human aP2 (fatty acid-binding protein, …); experiment: assay not given; KD (M) column under 'Human', first of two rows (also printed as 5.62 under KD (µM))
[4] = target: T2, mouse aP2 (fatty acid-binding protein, …); experiment: assay not given; KD (M) column under 'Mouse', first of two rows (also printed as 4.14 under KD (µM))
[5] = target: T1, human aP2 (fatty acid-binding protein, …); experiment: assay not given; KD (M) column under 'Human', second of two rows (also printed as 6.44 under KD (µM))
[6] = target: T2, mouse aP2 (fatty acid-binding protein, …); experiment: assay not given; KD (M) column under 'Mouse', second of two rows (also printed as 4.99 under KD (µM))
[7] = target: T3, recombinant human FABP5/Mal1 (human, UniProt Q01469 1-135); experiment: Octet RED384: biotinylated human FABP5/Mal1 on streptavidin biosensors, maximal association signal minus background
T3 construct: Bought; Biotinylated and loaded on streptavidin biosensors; also called hFABP5/hMal1; Mal1/FABP5
Protocol: The recombinant human proteins aP2 (generated at UCB in E. coli (see method below)), hFABP3 (Sino Biological Inc.) and hFABP5/hMal1 (Sino Biological Inc.) were biotinylated in a 5-fold molar excess of EZ-Link® Sulfo-NHS-LC-Biotin (Thermo Fisher Scientific) and purified from unbound biotin using a Zeba desalting column (Thermo Fisher Scientific). All binding studies were performed at 25° C. using a ForteBio Octet RED384 system (Pall ForteBio Corp.). After a 120 s baseline step in PBS containing 0.05% Tween 20, pH7.4 (PBS-T), Dip and Read™ streptavidin (SA) biosensors (Pall ForteBio Corp.) were loaded with biotinylated recombinant haP2, hFABP3 or hFABP5/hMal1 at 60 nM for 90 s. After a 60 s stabilisation step in PBS-T, each FABP-loaded biosensor was transferred to a sample of monoclonal antibody at 800 nM and association was measured for 5 min. Biosensors were then transferred back to PBS-T for 5 min to measure dissociation. Non-specific binding of antibodies was monitored using unloaded biosensor tips. Maximal association binding i.e., once signal had plateaued, minus background binding, was plotted for each antibody/FABP combination.

[8] = target: T1, human aP2 (fatty acid-binding protein, …); experiment: SPR, Biacore T200: antibody captured on immobilized anti-mouse IgG Fc, aP2 titrated 25 to 3.13 nM, 1:1 binding model
Protocol: (§1) The affinity of anti-aP2 binding to aP2 (recombinantly generated in E. coli as described below) was determined by biomolecular interaction analysis, using a Biacore T200 system (GE Healthcare). Affinipure F(ab′)2 fragment goat anti-mouse IgG, Fc fragment specific (Jackson ImmunoResearch Lab, Inc.) in 10 mM NaAc, pH 5 buffer was immobilized on a CMS Sensor Chip via amine coupling chemistry to a capture level between 4500-6000 response units (RU) using HBS-EP+(GE Healthcare) as the running buffer. Anti-aP2 IgG was diluted to between 1-10 μg/ml in running buffer. A 60 s injection of anti-aP2 IgG at 10 μl/min was used for capture by the immobilized anti-mouse IgG, Fc then aP2 was titrated from 25 nM to 3.13 nM over the captured anti-aP2 for 180 s at 30 μl/min followed by 300 s dissociation. The surface was regenerated by 2×60 s 40 mM HCl and 1×30 s 5 mM NaOH at 10 μl/min. The data were analyzed using Biacore T200 evaluation software (version 1.0) using the 1:1 binding model with local Rmax. […] The surface was regenerated by 1×60 s 40 mM HCl, 1×30 s 5 mM NaOH and 1×60 s 40 mM HCl at 10 μl/min. Steady state fitting was used to determine affinity values.

[9] = target: T2, mouse aP2 (fatty acid-binding protein, …); experiment: method not stated in the sentence (FIG. 31); average binding affinity; PB1171, mouse aP2
[10] = target: T2, mouse aP2 (fatty acid-binding protein, …); experiment: assay not given; KD (M) column under 'Mouse', first of two rows (also printed as 5.53 under KD (µM))
[11] = target: T2, mouse aP2 (fatty acid-binding protein, …); experiment: assay not given; KD (M) column under 'Mouse', second of two rows (also printed as 4.71 under KD (µM))
[12] = target: T1, human aP2 (fatty acid-binding protein, …); experiment: SPR, Biacore T200: antibody captured on immobilized anti-mouse IgG Fc, aP2 titrated 40 to 0.625 µM, steady state fit
Protocol: as §1

T3 sequence (Q01469 whole entry): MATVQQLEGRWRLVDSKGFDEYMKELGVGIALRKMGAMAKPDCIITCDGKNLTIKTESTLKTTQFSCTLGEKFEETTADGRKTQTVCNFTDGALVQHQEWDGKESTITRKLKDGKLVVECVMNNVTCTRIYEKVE

Kd [1]: 6.03 µM | Kd [2]: 4.57 µM | Kd [3]: 5.62 µM | Kd [4]: 4.14 µM | Kd [5]: 6.44 µM | Kd [6]: 4.99 µM
B1: PB1172 (H3 gL11/gH19), reduced-affinity variant of H3 (antibody, mouse IgG1, V domains shown)
VH: QVQLQQPGAELVKPGASVKLSCKASGYTFTSNAITWVKQRPGQGLEWIGDISPGSGSTTNNEKFKSKATLTVDTSSSTAYMQLSSLTSEDSAVYYCARLRGYYDYFDFWGQGTTLTVSS
VL: EVVLTQSPALMAASPGEKVTITCSVSSSISSSNLHWYQQKSETSPKPWIYGTSNLASGVPVRFSGSGSGTSYSLTISSMEAEDAATYYCQQASHYPLTFGAGTKLELK
notes: Heavy chain W33A, Y52S; light chain W91A, relative to H3; also called 5251.mIgG1168; APP5168/PB1172

binding result [7]: no binding | Kd [8]: 0.0011 µM
B2: H3, mouse anti-aP2 monoclonal antibody (H3 gL1/gH1) (antibody, V domains shown)
VH: B1 VH with A33W, S52Y
VL: B1 VL with A92W
notes: Mouse IgG; also called wild-type parent H3

Kd [9]: 5.12 µM | Kd [10]: 5.53 µM | Kd [11]: 4.71 µM
B3: PB1171 (H3 gL1/gH20), reduced-affinity variant of H3 (antibody, mouse IgG1, V domains shown)
VH: B1 VH with Y102F
VL: B1 VL with A92W
notes: Heavy chain W33A, Y52S, Y98F relative to H3; also called 5252.mIgG1.169; APP5169/PB1171

binding result [7]: no binding | Kd [12]: 2.83 µM
B4: CA33, rabbit-mouse hybrid anti-aP2 monoclonal antibody (Rabbit Ab 909) (antibody, V domains shown)
VH: QSVEESGGRLVTPGTPLTLTCTVSGFSLSTYYMSWVRQAPGKGLEWIGIIYPSGSTYCASWAKGRFTISKASTTVDLKITSPTTEDTATYFCARPDNDGTSGYLSGFGLWGQGTLVTVSS
VL: DVVMTQTPASVSEPVGGTVTIKCQASEDISRYLVWYQQKPGQPPKRLIYKASTLASGVPSRFKGSGSGTDFTLTISDLECDDAATYYCQCTYGTYAGSFFYSFGGGTEVVVE
notes: also called Rabbit Antibody 909
